The results in this text go back to article PMC6872814, “Functional interactions between nitrite reductase and nitric oxide reductase from Paracoccus denitrificans” (Scientific Reports, 2019).

The target in assay [1] is cytochrome c-dependent nitric oxide reductase (cNOR) from Paracoccus denitrificans, NorB and NorC, unlabelled (Paracoccus denitrificans) (UniProt Q51662).
Assay [2] has the same target. This is another data set of the same source.
Assay [3] shares this target. This is another data set of the same source.
The target is the same in assay [4]. The source holds these as a separate data set.

Chain of cytochrome c-dependent nitric oxide reductase (cNOR) from Paracoccus denitrificans, NorB and NorC, unlabelled (Paracoccus denitrificans) (Q51662 whole entry, looked up): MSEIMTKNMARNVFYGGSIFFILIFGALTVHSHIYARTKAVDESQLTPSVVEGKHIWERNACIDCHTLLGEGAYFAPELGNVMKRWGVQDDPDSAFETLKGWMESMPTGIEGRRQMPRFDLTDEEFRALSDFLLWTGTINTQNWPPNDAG
Chain of horse heart cytochrome c (P00004 whole entry): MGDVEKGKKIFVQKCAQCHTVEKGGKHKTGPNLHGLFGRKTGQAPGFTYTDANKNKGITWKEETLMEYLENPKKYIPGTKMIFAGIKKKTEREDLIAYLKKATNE
Chain of cytochrome cd1 nitrite reductase (cd1NiR) from Paracoccus pantotrophus, labelled with Abberior STAR 635 (P72181 30-596): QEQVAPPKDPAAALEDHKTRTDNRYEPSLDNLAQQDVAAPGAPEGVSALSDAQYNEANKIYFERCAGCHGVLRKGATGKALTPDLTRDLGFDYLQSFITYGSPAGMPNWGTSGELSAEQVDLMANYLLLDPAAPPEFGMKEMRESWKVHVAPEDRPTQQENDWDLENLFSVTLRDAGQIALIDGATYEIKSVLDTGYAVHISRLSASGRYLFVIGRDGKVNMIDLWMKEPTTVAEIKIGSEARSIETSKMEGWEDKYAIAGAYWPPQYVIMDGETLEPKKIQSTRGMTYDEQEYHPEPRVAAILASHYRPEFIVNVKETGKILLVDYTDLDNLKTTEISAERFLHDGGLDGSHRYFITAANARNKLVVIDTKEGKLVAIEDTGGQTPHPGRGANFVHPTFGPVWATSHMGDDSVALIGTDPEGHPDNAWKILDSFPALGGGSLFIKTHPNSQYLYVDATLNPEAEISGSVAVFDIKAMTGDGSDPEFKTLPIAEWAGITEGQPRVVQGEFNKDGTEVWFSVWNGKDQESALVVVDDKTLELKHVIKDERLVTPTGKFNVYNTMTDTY

“cytochrome cd1 nitrite reductase (cd1NiR) from Paracoccus pantotrophus, labelled with Abberior STAR 635 (from UniProt P72181 30-596) (enzyme)”: in assay [1], the inhibition of the maximum NO-reduction activity (kmax at ~5 µM NO) of 40 nM detergent-solubilized cNOR, cd1NiR 0-200 nM; the inhibition is released at higher cd1NiR was found to be 50%. Further, the relative kmax (kcat of the fit) of NO reduction by liposome-reconstituted cNOR in the presence of ~30 nM cd1NiR, cyt. c titration; control without cd1NiR = 100% in assay [2] worked out at 46%.
As for “horse heart cytochrome c (from UniProt P00004 1-105) (natural protein)”, in assay [3], the Km for cyt. c of NO reduction by liposome-reconstituted cNOR in the presence of ~30 nM cd1NiR (unchanged against the control) turned out to be 0.15 µM and the Km for cyt. c of NO reduction by liposome-reconstituted cNOR, side-by-side control without cd1NiR was 0.2 µM. Also, in assay [4], the Km for cyt. c of NO reduction by cNOR in detergent (0.05% DDM) turned out to be 0.8 µM and the Km for cyt. c of NO reduction by liposome-reconstituted cNOR is 0.8 µM.
